Measured values as given in patent US20060264369, “Aptamers to von Willebrand Factor and their use as thrombotic disease therapeutics” (published 2006).

Key:
[1] = target: T1, von Willebrand factor full length (Homo sapiens, UniProt P04275 SEQ:764-2813); experiment: filter; 22.6% bound at 100 nM vWF; details: tags: Calbiochem 681300; label: 5'-32P
Procedure: (§1) For KD determination, chemically synthesized aptamers were purified using denaturing polyacrylamide gel electrophoresis, 5′end labeled with γ-³²P ATP and were tested for direct binding to full length human vWF (Calbiochem Cat.# 681300, La Jolla, Calif.). An 8 point protein titration was used in the dot blot binding assay (100 nM, 30 nM, 10 nM, 3 nM, 1 nM, 300 pM, 100 pM, 0 pM)) in 1× Dulbecco's PBS containing […] (final volume of 50 uL) for 30 minutes at room temperature. KD values were calculated by fitting the equation y=(max/(1+K/protein))+yint using KaleidaGraph (KaleidaGraph v. 3.51, Synergy Software).

[2] = target: T1, von Willebrand factor full length; experiment: filter; 19.2% bound at 100 nM vWF; details: tags: Calbiochem 681300; label: 5'-32P
Procedure: as §1

[3] = target: T1, von Willebrand factor full length; experiment: flow; range 1.3-370 nM; details: tags: Calbiochem 681300
Procedure: Aptamer potency to block human vWF binding to lyophilized platelets was assessed by flow cytometric analysis. Titrations of aptamers (0 nM, 0.1 nM to 1000 nM) were pre-incubated briefly with 5 nM of full length human vWF in FACS buffer (PBS plus 0.5% bovine serum albumin) at room temperature in a volume of 50 uL. Another 50 uL containing 5 uL of lyophilized platelets plus 1 uL of 0.1 U/uL of botrocetin in FACS buffer was added to aptamer/vWF. This reaction was allowed to proceed for 15 minutes at 37 degrees C. after which 200 uL of FACS buffer was added. […] The pellets were resuspended in 100 uL of FACS buffer containing a 1:100 dilution of anti-vWF antibody and were incubated at room temperature for 30 minutes. […] The pellets were resuspended in a 1:100 solution of anti-IgG2a-FITC antibody and were incubated in the dark for 30 minutes at room temperature. The entire 100 uL was diluted into 200 uL of FACS buffer and analyzed immediately by flow cytometric analysis in the FACSCAN. […] Mean fluorescent intensity (“MFI”) readings were quantified for each sample analyzed by flow cytometry. […] IC₅₀ values were determined by fitting the percent inhibition of vWF binding to platelets as a function of aptamer concentration to the equation: % inhibition=% inhibitionₘₐₓ/(1+IC₅₀/aptamer conc.)

[4] = target: von Willebrand factor A1 domain (human) (Homo sapiens, UniProt P04275 SEQ:13-246); experiment: filter; 100 nM protein
Excerpt: When a significant positive ratio of binding of RNA in the presence of human or rabbit vWF A1 domain (SEQ ID NOS […] and 6, respectively) versus in the absence of protein was seen, the pools were cloned using the TOPO TA cloning kit (Invitrogen Cat.# 45-0641, Carlsbad, Calif.) according to the manufacturer's instructions. Round 9 and 12 pool templates were cloned and sequenced (185 total sequences), producing 78 unique clones within 3 sequence families. All unique clones were transcribed, desalted, 5-³²P end-labeled, and assayed in a 3-point dot blot screen (no protein target control, 100 nM human vWF A1 domain (SEQ ID NO 5), or 100 nM rabbit vWF A1 domain (SEQ ID NO 6). The data are presented in the third and fourth columns of Table 9 below as the ratio of the fraction of the aptamer bound to the nitrocellulose in the presence of the target protein to the fraction of aptamer bound in the absence of the target protein. Of the three sequence families, members of Family #1 and # 2 and two individual, non-family aptamers, bound to both human vWF domain A1 (SEQ ID NO 5) and rabbit vWF domain A1 (SEQ ID NO 6).

[5] = target: T1, von Willebrand factor full length; experiment: filter; 29% bound at 100 nM vWF; details: tags: Calbiochem 681300; label: 5'-32P
Procedure: as §1

[6] = target: T1, von Willebrand factor full length; experiment: filter; 32% bound at 100 nM; details: tags: Calbiochem 681300
Procedure: as §1

[7] = target: T1, von Willebrand factor full length; experiment: filter; 54% bound at 100 nM; details: tags: Calbiochem 681300
Procedure: as §1

[8] = target: T1, von Willebrand factor full length; experiment: filter; 55% bound at 100 nM; details: tags: Calbiochem 681300
Procedure: as §1

[9] = target: T1, von Willebrand factor full length; experiment: filter; 33% bound at 100 nM; details: tags: Calbiochem 681300
Procedure: as §1

[10] = target: T1, von Willebrand factor full length; experiment: filter; 51% bound at 100 nM; details: tags: Calbiochem 681300
Procedure: as §1

[11] = target: T1, von Willebrand factor full length; experiment: filter; 42% bound at 100 nM; details: tags: Calbiochem 681300
Procedure: as §1

[12] = target: T1, von Willebrand factor full length; experiment: filter; 44% bound at 100 nM; details: tags: Calbiochem 681300
Procedure: as §1

[13] = target: T1, von Willebrand factor full length; experiment: filter; 47% bound at 100 nM; details: tags: Calbiochem 681300
Procedure: as §1

[14] = target: T1, von Willebrand factor full length; experiment: filter; 51% bound at 100 nM vWF; details: tags: Calbiochem 681300; label: 5'-32P
Procedure: as §1

[15] = target: T1, von Willebrand factor full length; experiment: filter; 29.0% bound at 100 nM vWF; details: tags: Calbiochem 681300; label: 5'-32P
Procedure: as §1

[16] = target: T1, von Willebrand factor full length; experiment: filter; 38.2% bound at 100 nM vWF; details: tags: Calbiochem 681300; label: 5'-32P
Procedure: as §1

[17] = target: T1, von Willebrand factor full length; experiment: filter; 26.5% bound at 100 nM vWF; details: tags: Calbiochem 681300; label: 5'-32P
Procedure: as §1

[18] = target: T1, von Willebrand factor full length; experiment: filter; 38.5% bound at 100 nM vWF; details: tags: Calbiochem 681300; label: 5'-32P
Procedure: as §1

CGUGCAGUGCCUUCGGCCGTGCGGTGCCUCCGUCACG (mixed, 2'-OMe/deoxy composite, single PS, 3'-idT) [ARC1529] gave a Kd [1] of 12.3 nM.

Binder CGUGCAGUGCCUUUGGCCGTGCGGTGCCUCCGUCACG (mixed, 2'-OMe/deoxy composite, single PS, 3'-idT) [ARC1530] has a Kd [2] of 15 nM.

GGAGCCACACGACATTGGCGCGAGAGCGCATGGCTCC (mixed, ribo purines, deoxy pyrimidines) [rRdY minimer SEQ 201] was tested, and the IC50 [3] was 150 nM.

B1: AMX203.F9 (mixed)
DNA: GGAGCGCACTCAGCCACTGAAGGGTAAGGACGAGGAGGGTATACAGTGTGCGCGTGTATTTCGACCTCTCTGCTAGC
modifications: ribo purines, deoxy pyrimidines
In the case of B1, the binding signal [4] is reported as 1.45 ratio to no protein.

B2: ARC1345 (mixed)
mixed: GGCGUGCAGUGCCUUCGGCCGTGCGGTGCCUCCGUCACGCC
modifications: 2'-OMe/deoxy composite with PS 5' of the deoxy residues as printed in Table 22, 3'-idT
B2 showed a Kd [5] of 12.1 nM.

Work on GGCGUGCAGTGCCTTCGGCCGTGCGGTGCCTCCGTCACGCC (ssDNA, 2'-OMe at 3,5,36,38,40,41; 3'-idT) [ARC1236] yielded a Kd [6] of 3 nM.

GGCGTGCAGTGCCUTCGGCCGTGCGGTGCCTCCGTCACGCC (ssDNA, 2'-OMe at 14 (mU); 3'-idT) [ARC1207] gave a Kd [7] of 2 nM.

GGCGTGCAGTGCCTTCGGCCGTGCGGTGCCTCCGTCACGCC (ssDNA, 2'-OMe at 2; 3'-idT) [ARC1195] was tested, and the Kd [8] was 1 nM.

With GGCGTGCAGTGCCTTCGGCCGTGCGGTGCCTCCGTCACGCC (ssDNA, 2'-OMe at 26; 3'-idT) [ARC1219] the Kd [9] was 3 nM.

Binder GGCGTGCAGTGCCTTCGGCCGTGCGGTGCCTCCGTCACGCC (ssDNA, 2'-OMe at 39; 3'-idT) [ARC1232] has a Kd [10] of 1 nM.

For GGCGTGCAGTGCCTTCGGCCGTGCGGTGCCTCCGTCACGCC (ssDNA, 2'-OMe at 41; 3'-idT) [ARC1234], the Kd [11] was 2 nM.

With GGCGTGCAGTGCCTTCGGCCGTGCGGTGCCTCCGTCACGCC (ssDNA, 2'-OMe at 16; 3'-idT) [ARC1209] the Kd [12] was 2 nM.

For GGCGTGCAGTGCCTTCGGCCGTGCGGTGCCTCCGTCACGCC (ssDNA, 2'-OMe at 18; 3'-idT) [ARC1211], the Kd [13] was 2 nM.

For GCGUGCAGUGCCUUCGGCCGTGCGGTGCCUCCGUCACGC (mixed, 2'-OMe/deoxy composite, 3'-idT) [ARC1346], the Kd [14] was 11 nM.

In the case of GCGUGCAGUGCCUUUGGCCGTGCGGTGCCUCCGUCACGC (mixed, 2'-OMe/deoxy composite, single PS, 3'-idT) [ARC1526], the Kd [15] is reported as 47 nM.

In the case of GCGUGCAGUGCCUUCGGCCGTGCGGTGCCUCCGUCACGC (mixed, 2'-OMe/deoxy composite, single PS between mG20 and dT21, 3'-idT) [ARC1368], the Kd [16] is reported as 1.8 nM.

For GCGUGCAGUGCCUUCGGCCGTGCGGTGCCUCCGUCACGC (mixed, 2'-OMe/deoxy composite, single PS between mG20 and dT21, 3'-idT) [ARC1524], the Kd [17] was 5.7 nM.

For GCGUGCAGUGCCUUCGGCCGTGCGGTGCCUCCGUCACGC (mixed, 2'-OMe/deoxy composite, 3'-idT) [ARC1361], the Kd [18] was 7.9 nM.
